{"source": "patent US20090233318A1", "about": "(RECEPTOR LOGIC, published 2009)", "binders": {"B1": {"name": "GVL peptide, GVLPALPQV (hCGβ 47-55) (peptide)", "peptide": "GVLPALPQV", "notes": "Synthetic peptide; also called GVL(47)"}, "B2": {"name": "VLQ peptide, VLQGVLPAL (hCGβ 44-52) (peptide)", "peptide": "VLQGVLPAL", "notes": "Synthetic peptide; also called VLQ(44)"}, "B3": {"name": "TMT peptide, TMTRVLQGV (hCGβ 40-48) (peptide)", "peptide": "TMTRVLQGV", "notes": "Synthetic peptide; also called TMT(40)"}}, "target": "T1, activated soluble HLA-A*0201 (PolyTest) (human)", "T1 construct": "also called sHLA", "test": "fluorescence polarization competition against 2.2 nM standard FITC-labeled peptide P5(A*0201), 40.5 µg/ml sHLA A*0201VLDL (2507)", "method": "After reaching equilibrium conditions, fluorescence polarization expressed in mP was measured. Values obtained at different peptide dilutions were graphed and inhibitory concentrations expressed as log [IC50]'s determined by fitting the data to a dose-response model.\nFor all preparations, 1×BGG/PBS was used as buffer. […] FP values given as milli-polarization (mP) are calculated by the equation:polarization (mP)=1000(S−GP)/(S+GP), where S and P are background-subtracted intensities of the fluorescence measured in the parallel (S) and perpendicular (P) directions, respectively, and G (grating) is the instrument and assay dependent correction factor.\nCompetition experiments were analyzed by plotting FPₘₐₓ (maximal polarization) values as a function of the logarithms of competitor concentrations. […] Observed inhibitory concentrations (IC₅₀) were determined by nonlinear curve fitting to a dose-response model with variable slope using the specific software Prism (Graph Pad Software Inc.; San Diego, Calif.).", "data": [{"binder": "B1", "values": [{"measurement": "logIC50(nM)", "result": "2.97 log10 of nM"}]}, {"binder": "B2", "values": [{"measurement": "logIC50(nM)", "result": "2.96 log10 of nM"}]}, {"binder": "B3", "values": [{"measurement": "logIC50(nM)", "result": "3.27 log10 of nM"}]}]}
